# Where “and” joins values, the source holds several entries; their conditions need not be identical. Equal entries are not always repeated.
# B1: Cold shock protein CspB, P41016 (parent)
# chain: MQRGKVKWFNNEKGYGFIEVEGGSDVFVHFTAIQGEGFKTLEEGQEVSFEIVQGNRGPQAANVVKL
# Variants of: B1
# Settings: Bacillus caldolyticus; pH 7; 25 °C; GdnHCl; Fluorescence; sodium cacodylate 100 mM; reversible: yes; structure 1C9O; whole UniProt chain shown
Variant,ddG of mutation (higher = less stable),denaturant m value,denaturant midpoint (higher = more stable),unfolding free energy
E50W,-0.3 kcal/mol,1.69 kcal/mol/M,2.18 M,3.7 kcal/mol
E50W L66C,1.7 kcal/mol and 4.4 kcal/mol,1.97 kcal/mol/M and 1.54 kcal/mol/M,1.64 M and 1.68 M,3.23 kcal/mol and 2.58 kcal/mol
F38W,-0.7 kcal/mol,1.75 kcal/mol/M,2.18 M,3.8 kcal/mol
E50W S24C,0.8 kcal/mol and 0.3 kcal/mol,1.64 kcal/mol/M and 1.43 kcal/mol/M,2.09 M and 2.05 M,3.44 kcal/mol and 2.92 kcal/mol
F38W L66C,,1.97 kcal/mol/M and 1.9 kcal/mol/M and 1.54 kcal/mol/M,2.14 M and 2.11 M and 1.83 M,4.21 kcal/mol and 4.02 kcal/mol and 2.82 kcal/mol

# — FireProtDB (doi:10.1016/j.jmb.2003.11.050)
